According to patent publication US6867003:

Target: insulin receptor partially purified from CHO-IR cells (Chinese Hamster Ovary cells expressing high levels of insulin receptors of human origin) (human) (UniProt P06213)
Assay: cell-based or functional assay

B1: GST-mGrb10 (protein, mouse, UniProt Q60760 1-621, looked up, not shown: a dimerising Fc or GST)
chain: MNNDINSSVESLNSACNMQSDTDTAPLLEDGQHASNQGAASSSRGQPQASPRQKMQRSQPVHILRRLQEEDQQLRTASLPAIPNPFPELTGAAPGSPPSVAPSSLPPPPSQPPAKHCGRCEKWIPGENTRGNGKRKIWRWQFPPGFQLSKLTRPGLWTKTTARFSKKQPKNQCPTDTVNPVARMPTSQMEKLRLRKDVKVFSEDGTSKVVEILTDMTARDLCQLLVYKSHCVDDNSWTLVEHHPQLGLERCLEDHEIVVQVESTMPSESKFLFRKNYAKYEFFKNPVNFFPDQMVNWCQQSNGGQAQLLQNFLNTSSCPEIQGFLQVKEVGRKSWKKLYVCLRRSGLYYSTKGTSKEPRHLQLLADLEESSIFYLIAGKKQYNAPNEHGMCIKPNKAKTEMKELRLLCAEDEQIRTCWMTAFRLLKYGMLLYQNYRIPQRKGLPPPFNAPMRSVSENSLVAMDFSGQIGRVIDNPAEAQSAALEEGHAWRKRSTRMNILSSQSPLHPSTLNAVIHRTQHWFHGRISREESHRIIKQQGLVDGLFLLRDSQSNPKAFVLTLCHHQKIKNFQILPCEDDGQTFFTLDDGNTKFSDLIQLVDFYQLNKGVLPCKLKHHCIRVAL
amount giving 50% inhibition of the tyrosine kinase activity of the receptors (32P incorporation into poly Glu-Tyr): 0.13 µg
